Measured values from patent US20160060325A1 (POMONA RICERCA S R L, published 2016).

How the values were obtained:
[1] = target: hemagglutinin (HA) of influenza A virus H3N2, strain A/PC/1/73 (influenza A virus H3N2, strain A/PC/1/73, UniProt Q1PUD9 17-566); assay: cell-based or functional assay
[2] = target: hemagglutinin (HA) of influenza A virus H3N2, strain A/Victoria/3/75 (influenza A virus H3N2, strain …, UniProt P03435 17-567); assay: cell-based or functional assay
[3] = target: hemagglutinin (HA) of influenza A virus H1N1, strain A/PR/8/34 (influenza A virus H1N1, strain A/PR/8/34, UniProt P03452 18-565); assay: cell-based or functional assay
Sequence of hemagglutinin (HA) of influenza A virus H1N1, strain A/PR/8/34 (P03452 18-565 limits assumed): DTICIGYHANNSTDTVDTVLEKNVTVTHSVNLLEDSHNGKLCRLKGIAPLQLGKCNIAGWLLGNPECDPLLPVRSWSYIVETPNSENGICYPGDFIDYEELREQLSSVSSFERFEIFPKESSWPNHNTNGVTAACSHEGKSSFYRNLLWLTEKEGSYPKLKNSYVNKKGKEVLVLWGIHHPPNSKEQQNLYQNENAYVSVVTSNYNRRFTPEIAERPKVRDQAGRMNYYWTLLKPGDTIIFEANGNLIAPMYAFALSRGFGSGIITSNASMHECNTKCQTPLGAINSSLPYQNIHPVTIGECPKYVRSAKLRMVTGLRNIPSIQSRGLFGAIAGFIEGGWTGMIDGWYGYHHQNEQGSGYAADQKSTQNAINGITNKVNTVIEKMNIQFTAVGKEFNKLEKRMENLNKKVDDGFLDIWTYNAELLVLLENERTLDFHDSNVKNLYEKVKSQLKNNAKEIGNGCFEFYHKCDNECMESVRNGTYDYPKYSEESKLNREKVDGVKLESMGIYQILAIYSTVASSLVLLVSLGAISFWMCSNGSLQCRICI

[4] = target: hemagglutinin (HA) of influenza A virus H1N1, strain A/Malaya/302/54 (influenza A virus H1N1, strain …); assay: cell-based or functional assay
[5] = target: HA2 subunit of hemagglutinin (individual subunit, Western blot) (influenza A virus H1N1, strain A/PR/8/34, UniProt P03452 344-565); assay: Western blot
Sequence of HA2 subunit of hemagglutinin (individual subunit, Western blot) (P03452 344-565 limits assumed): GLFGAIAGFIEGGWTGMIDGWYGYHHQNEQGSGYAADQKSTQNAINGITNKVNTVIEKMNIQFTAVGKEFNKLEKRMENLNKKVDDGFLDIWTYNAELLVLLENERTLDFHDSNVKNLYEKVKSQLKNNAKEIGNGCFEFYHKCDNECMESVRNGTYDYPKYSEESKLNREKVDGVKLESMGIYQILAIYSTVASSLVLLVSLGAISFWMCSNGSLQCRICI

Sequence of hemagglutinin (HA) of influenza A virus H3N2, strain A/Victoria/3/75 (P03435 17-567 limits assumed): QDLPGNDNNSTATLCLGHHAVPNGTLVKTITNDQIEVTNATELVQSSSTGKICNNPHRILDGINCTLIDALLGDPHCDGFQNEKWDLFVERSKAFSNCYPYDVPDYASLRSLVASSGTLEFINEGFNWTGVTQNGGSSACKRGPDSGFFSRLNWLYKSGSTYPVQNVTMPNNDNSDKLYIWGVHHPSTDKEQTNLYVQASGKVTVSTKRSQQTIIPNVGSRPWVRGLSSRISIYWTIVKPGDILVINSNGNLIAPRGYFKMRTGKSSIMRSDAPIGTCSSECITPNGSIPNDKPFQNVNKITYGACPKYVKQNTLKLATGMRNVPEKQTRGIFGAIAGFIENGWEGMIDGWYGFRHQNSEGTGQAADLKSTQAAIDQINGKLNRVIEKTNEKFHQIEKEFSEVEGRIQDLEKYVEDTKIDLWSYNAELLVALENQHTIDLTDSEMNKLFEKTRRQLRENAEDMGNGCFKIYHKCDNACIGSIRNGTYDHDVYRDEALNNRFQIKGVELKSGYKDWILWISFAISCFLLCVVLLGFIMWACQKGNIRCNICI
Sequence of hemagglutinin (HA) of influenza A virus H3N2, strain A/PC/1/73 (Q1PUD9 17-566): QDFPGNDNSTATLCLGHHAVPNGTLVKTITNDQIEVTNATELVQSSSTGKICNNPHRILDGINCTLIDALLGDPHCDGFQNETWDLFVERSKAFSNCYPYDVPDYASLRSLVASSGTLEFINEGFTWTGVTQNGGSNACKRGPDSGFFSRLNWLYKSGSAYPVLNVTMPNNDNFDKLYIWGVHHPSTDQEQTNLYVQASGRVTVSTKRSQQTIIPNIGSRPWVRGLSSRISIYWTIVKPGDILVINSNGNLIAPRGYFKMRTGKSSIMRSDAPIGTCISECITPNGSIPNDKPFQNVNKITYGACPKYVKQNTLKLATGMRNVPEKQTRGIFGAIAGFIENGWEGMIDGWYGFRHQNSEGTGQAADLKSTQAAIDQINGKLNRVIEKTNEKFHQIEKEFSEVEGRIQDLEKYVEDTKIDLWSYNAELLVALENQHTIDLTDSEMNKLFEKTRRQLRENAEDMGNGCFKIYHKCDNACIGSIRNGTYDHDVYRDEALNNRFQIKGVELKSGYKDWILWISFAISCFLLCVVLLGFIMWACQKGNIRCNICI

B1: Fab28 (monoclonal antibody produced by clone INF28, human Fab fragment) (Fab, V domains shown)
VH: LEESGGGVVQPGRSLRLSCAASGFPFSSYGMHWVRQAPGKGLEWVAGVSYDGSYKYYADSVKGRFTISRDSSKSTLYLQMNSLRPEDTAVYYCARPSAIFGIYIILNGLDVWGQGTTVTVSS
VL: ELTQSPSSVSASVGDRVTITCRATQGISSWLAWYQQKPGKPPKLLIFGASSLQSGVPSRFSGSGSGTDFTLTISSLQPEDFATYFCQQAHSFPLTFGGGTKVEIK
- IC50, neutralization by plaque reduction assay, H3N2 A/Port Chalmers/1/73 [1]: ~20 µg/mL
- IC50, neutralization by plaque reduction assay, H3N2 A/Victoria/3/75 [2]: ~20 µg/mL
- IC50, neutralization by plaque reduction assay, H1N1 A/PR/8/34 [3]: < 2.5 µg/mL
- IC50, neutralization by plaque reduction assay, H1N1 A/Malaya/302/54 [4]: < 2.5 µg/mL
- binding result [5]: no binding
